Test results as given in doi:10.1101/2021.02.18.431786 (bioRxiv, 2021).

T1: Human ABCG2 (breast cancer resistance protein), wild type, N-terminal Flag tag, reconstituted in nanodiscs (human), Q9UNQ0
T1 chain: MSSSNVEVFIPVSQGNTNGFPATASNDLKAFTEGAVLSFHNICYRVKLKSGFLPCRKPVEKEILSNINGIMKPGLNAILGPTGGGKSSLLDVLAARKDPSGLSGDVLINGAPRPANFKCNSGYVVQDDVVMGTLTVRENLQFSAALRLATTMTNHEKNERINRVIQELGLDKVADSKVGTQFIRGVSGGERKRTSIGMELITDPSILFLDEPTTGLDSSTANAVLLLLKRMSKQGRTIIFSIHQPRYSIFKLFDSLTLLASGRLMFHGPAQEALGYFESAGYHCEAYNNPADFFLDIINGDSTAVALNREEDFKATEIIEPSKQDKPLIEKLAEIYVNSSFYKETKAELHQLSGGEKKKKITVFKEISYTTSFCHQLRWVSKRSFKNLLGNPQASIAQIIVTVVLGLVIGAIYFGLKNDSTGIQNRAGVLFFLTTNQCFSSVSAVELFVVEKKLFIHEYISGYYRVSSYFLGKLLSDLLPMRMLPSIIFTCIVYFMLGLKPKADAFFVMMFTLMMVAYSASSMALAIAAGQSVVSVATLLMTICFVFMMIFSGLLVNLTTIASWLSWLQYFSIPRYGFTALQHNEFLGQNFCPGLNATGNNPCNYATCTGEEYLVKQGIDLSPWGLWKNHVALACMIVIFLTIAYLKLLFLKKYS


Columns and labels:
[1] = target: Human ABCG2 (breast cancer resistance protein), wild type, N-terminal Flag tag, reconstituted in nanodiscs (human, UniProt Q9UNQ0); assay: cryo-EM structure
[2] = target: T1, Human ABCG2 (breast cancer resistance …); assay: cryo-EM structure; conditions: remark: other sources report otherwise

binding result [1]	stoichiometry N [2]	Binder
binds	–	Fab fragment of the ABCG2-specific monoclonal antibody 5D3 (Fab, V domains shown) VH: QVQLQESGPGLVKPSQSLSLTCTVTGFSITSDYAWNWIRQFPGKKLEWMGYINFDGGTTYNPSLRGRISITRDTSKNQFFLQLRSVTPEDTATYYCATFYGAKGTLDYWGQGTSVTVSS VL: DIVLTQSPSSFSVSLGDRVTISCKASGYILNRLAWYQQKPGNAPRLLISGATSLETGFPSRFSGTGSGKDYTLSISSLQTEDVGTYYCQQYWSTPWTFGGGTKLEIR
–	2	Human ABCG2 (breast cancer resistance protein), wild type, N-terminal Flag tag, reconstituted in nanodiscs, Q9UNQ0 1-655 (natural protein) MSSSNVEVFIPVSQGNTNGFPATASNDLKAFTEGAVLSFHNICYRVKLKSGFLPCRKPVEKEILSNINGIMKPGLNAILGPTGGGKSSLLDVLAARKDPSGLSGDVLINGAPRPANFKCNSGYVVQDDVVMGTLTVRENLQFSAALRLATTMTNHEKNERINRVIQELGLDKVADSKVGTQFIRGVSGGERKRTSIGMELITDPSILFLDEPTTGLDSSTANAVLLLLKRMSKQGRTIIFSIHQPRYSIFKLFDSLTLLASGRLMFHGPAQEALGYFESAGYHCEAYNNPADFFLDIINGDSTAVALNREEDFKATEIIEPSKQDKPLIEKLAEIYVNSSFYKETKAELHQLSGGEKKKKITVFKEISYTTSFCHQLRWVSKRSFKNLLGNPQASIAQIIVTVVLGLVIGAIYFGLKNDSTGIQNRAGVLFFLTTNQCFSSVSAVELFVVEKKLFIHEYISGYYRVSSYFLGKLLSDLLPMRMLPSIIFTCIVYFMLGLKPKADAFFVMMFTLMMVAYSASSMALAIAAGQSVVSVATLLMTICFVFMMIFSGLLVNLTTIASWLSWLQYFSIPRYGFTALQHNEFLGQNFCPGLNATGNNPCNYATCTGEEYLVKQGIDLSPWGLWKNHVALACMIVIFLTIAYLKLLFLKKYS
